From publication PMC2532732

Columns and labels:
Experiment in all cases: EMSA
p63 DBD = biological target: T1, p63 DBD (UniProt Q9H3D4 154-365)
T1 sequence: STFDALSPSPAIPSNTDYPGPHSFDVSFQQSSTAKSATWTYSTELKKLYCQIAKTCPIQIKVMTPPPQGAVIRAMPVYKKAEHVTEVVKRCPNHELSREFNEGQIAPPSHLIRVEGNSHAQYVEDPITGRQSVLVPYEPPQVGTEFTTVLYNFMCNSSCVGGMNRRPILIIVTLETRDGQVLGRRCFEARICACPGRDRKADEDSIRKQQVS

p73 DBD = biological target: T2, p73 DBD (UniProt O15350 104-333)
T2 sequence: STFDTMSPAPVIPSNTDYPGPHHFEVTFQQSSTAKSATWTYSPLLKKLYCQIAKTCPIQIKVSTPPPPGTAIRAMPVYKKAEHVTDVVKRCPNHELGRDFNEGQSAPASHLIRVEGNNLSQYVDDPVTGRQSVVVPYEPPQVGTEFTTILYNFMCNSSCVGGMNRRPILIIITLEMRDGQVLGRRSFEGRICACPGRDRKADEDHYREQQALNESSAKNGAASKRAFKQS

p53 DBD = p53 DBD (UniProt P04637 94-312)
Chain of p53 DBD (P04637 94-312): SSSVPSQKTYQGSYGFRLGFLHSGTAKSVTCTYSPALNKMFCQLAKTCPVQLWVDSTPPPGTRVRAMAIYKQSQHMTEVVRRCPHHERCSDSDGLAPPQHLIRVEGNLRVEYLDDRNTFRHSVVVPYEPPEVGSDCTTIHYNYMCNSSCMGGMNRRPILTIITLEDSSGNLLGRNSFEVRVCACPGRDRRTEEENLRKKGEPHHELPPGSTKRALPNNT

Measured: binding result

B1: PUMA promoter 30-mer (dsDNA)
DNA 1: CGCGCCTGCAAGTCCTGACTTGTCCGCGGC
DNA 2: GCCGCGGACAAGTCAGGACTTGCAGGCGCG
binds: p63 DBD | p73 DBD | p53 DBD

B2: Bax promoter 30-mer (dsDNA)
DNA 1: GGGCTCACAAGTTAGAGACAAGCCTGGGCG
DNA 2: CGCCCAGGCTTGTCTCTAACTTGTGAGCCC
binds: p63 DBD | p73 DBD | p53 DBD
